From patent publication US7354588B1, “Functional derivatives of ICAM-1 with altered ability to bind LFA-1 or HRV” (Dana Farber Cancer Institute, priority 1987, dated 2008)
Residue numbers refer to the chain shown, from its start.

B1: D71/N: ICAM-1 substitution mutant, D71 to N (protein, UniProt P05362 28-532, looked up, variant D71N)
Intercellular adhesion …: QTSVSPSKVILPRGGSVLVTCSTSCDQPKLLGIETPLPKKELLLPGNNRKVYELSNVQEDSQPMCYSNCPNGQSTAKTFLTVYWTPERVELAPLPSWQPVGKNLTLRCQVEGGAPRANLTVVLLRGEKELKREPAVGEPAEVTTTVLVRRDHHGANFSCRTELDLRPQGLELFENTSAPYQLQTFVLPATPPQLVSPRVLEVDTQGTVVCSLDGLFPVSEAQVHLALGDQRLNPTVTYGNDSFSAKASVSVTAEDEGTQRLTCAVILGNQSQETLQTVTIYSFPAPNVILTKPEVSEGTEVTVKCEAHPRAKVTLNGVPAQPLGPRAQLLLKATPEDNGRSFSCSATLEVAGQLIHKNQTRELRVLYGPRLDERDCPGNWTWPENSQQTPMCQAWGNPLPELKCLKDGTFPLPIGESVTVTRDLEGTYLCRARSTQGEVTRKVTVNVLSPRYEIVIITVVAAAVIMGTAGLSTYLYNRQRKIKKYRLQQAQKGTPMKPNTQATPP
B2: D71GQS/NGEL (protein, UniProt P05362 28-532, looked up, variant D71N Q73E S74L)
Intercellular adhesion …: B1 Intercellular adhesion … with Q73E, S74L
B3: S3VS/AGL (protein, UniProt P05362 28-532, looked up, variant S3A V4G S5L)
Intercellular adhesion …: B1 Intercellular adhesion … with S3A, V4G, S5L, N71D
B4: Q62PM/API (protein, UniProt P05362 28-532, looked up, variant Q62A M64I)
Intercellular adhesion …: B1 Intercellular adhesion … with Q62A, M64I, N71D
B5: E111GGA/KAGS (protein, UniProt P05362 28-532, looked up, variant E111K G112A A114S)
Intercellular adhesion …: B1 Intercellular adhesion … with N71D, E111K, G112A, A114S
B6: Q58EDS/AKDI (protein, UniProt P05362 28-532, looked up, variant Q58A E59K S61I)
Intercellular adhesion …: B1 Intercellular adhesion … with Q58A, E59K, S61I, N71D
B7: G46NN/ASI: ICAM-1 substitution mutant, G46NN to ASI (protein, UniProt P05362 28-532, looked up, variant G46A N47S N48I)
Intercellular adhesion …: B1 Intercellular adhesion … with G46A, N47S, N48I, N71D

Test system: HRV14
Assay: Binding of [^35S]-Met labeled HRV14 to COS cells expressing ICAM-1 mutants
Assay type: cell-based, human rhinovirus 14
Settings: 35S met-labeled HRV14 binding to COS cells expressing ICAM-1 mutant; normalized for percent of cells expressing mutant and for wild type binding; mean

| Molecule | HRV Binding % |
| --- | --- |
| B1 | 62% |
| B2 | 21% |
| B3 | 61% |
| B4 | 182% |
| B5 | 162% |
| B6 | 0% |
| B7 | 9% |

Same assay, conditions: COS cells expressing the mutant, relative to wild type

| Molecule | decrease in HRV14 binding |
| --- | --- |
| B1 | two-fold |
| B7 | ten-fold |

Target: T1, LFA-1 (Homo sapiens, UniProt P05107+P20701)
T1 construct: endogenous in cells
T1 sequence (P20701 26-1170): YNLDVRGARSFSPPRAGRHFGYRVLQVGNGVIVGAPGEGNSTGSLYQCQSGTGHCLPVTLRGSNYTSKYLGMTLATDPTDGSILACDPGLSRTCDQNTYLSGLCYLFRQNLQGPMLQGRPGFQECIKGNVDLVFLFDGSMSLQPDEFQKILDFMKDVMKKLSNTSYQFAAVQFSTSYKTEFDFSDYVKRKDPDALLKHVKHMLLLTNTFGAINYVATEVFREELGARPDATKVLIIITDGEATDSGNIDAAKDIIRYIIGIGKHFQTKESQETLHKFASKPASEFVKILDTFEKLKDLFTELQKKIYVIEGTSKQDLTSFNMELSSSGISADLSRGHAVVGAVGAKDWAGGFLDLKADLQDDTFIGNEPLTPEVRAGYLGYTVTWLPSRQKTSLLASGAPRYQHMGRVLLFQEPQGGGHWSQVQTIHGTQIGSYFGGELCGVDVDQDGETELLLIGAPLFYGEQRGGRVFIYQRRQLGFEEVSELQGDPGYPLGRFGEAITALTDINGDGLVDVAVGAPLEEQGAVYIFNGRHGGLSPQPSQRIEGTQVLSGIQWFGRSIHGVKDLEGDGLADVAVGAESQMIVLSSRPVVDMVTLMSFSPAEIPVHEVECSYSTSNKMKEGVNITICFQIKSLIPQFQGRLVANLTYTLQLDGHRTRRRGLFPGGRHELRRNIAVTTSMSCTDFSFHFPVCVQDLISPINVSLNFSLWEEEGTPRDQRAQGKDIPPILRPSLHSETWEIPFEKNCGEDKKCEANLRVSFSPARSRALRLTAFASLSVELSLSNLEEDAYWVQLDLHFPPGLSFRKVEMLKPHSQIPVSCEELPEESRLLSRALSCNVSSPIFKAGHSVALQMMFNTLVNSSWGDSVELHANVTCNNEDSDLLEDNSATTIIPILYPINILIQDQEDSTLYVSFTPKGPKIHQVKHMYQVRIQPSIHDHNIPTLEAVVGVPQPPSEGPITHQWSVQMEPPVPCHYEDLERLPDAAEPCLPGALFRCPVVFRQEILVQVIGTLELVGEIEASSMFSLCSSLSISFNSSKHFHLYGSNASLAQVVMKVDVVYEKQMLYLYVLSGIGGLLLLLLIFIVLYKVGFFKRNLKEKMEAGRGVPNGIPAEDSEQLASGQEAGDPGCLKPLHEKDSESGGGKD
T1 sequence (P05107 23-769): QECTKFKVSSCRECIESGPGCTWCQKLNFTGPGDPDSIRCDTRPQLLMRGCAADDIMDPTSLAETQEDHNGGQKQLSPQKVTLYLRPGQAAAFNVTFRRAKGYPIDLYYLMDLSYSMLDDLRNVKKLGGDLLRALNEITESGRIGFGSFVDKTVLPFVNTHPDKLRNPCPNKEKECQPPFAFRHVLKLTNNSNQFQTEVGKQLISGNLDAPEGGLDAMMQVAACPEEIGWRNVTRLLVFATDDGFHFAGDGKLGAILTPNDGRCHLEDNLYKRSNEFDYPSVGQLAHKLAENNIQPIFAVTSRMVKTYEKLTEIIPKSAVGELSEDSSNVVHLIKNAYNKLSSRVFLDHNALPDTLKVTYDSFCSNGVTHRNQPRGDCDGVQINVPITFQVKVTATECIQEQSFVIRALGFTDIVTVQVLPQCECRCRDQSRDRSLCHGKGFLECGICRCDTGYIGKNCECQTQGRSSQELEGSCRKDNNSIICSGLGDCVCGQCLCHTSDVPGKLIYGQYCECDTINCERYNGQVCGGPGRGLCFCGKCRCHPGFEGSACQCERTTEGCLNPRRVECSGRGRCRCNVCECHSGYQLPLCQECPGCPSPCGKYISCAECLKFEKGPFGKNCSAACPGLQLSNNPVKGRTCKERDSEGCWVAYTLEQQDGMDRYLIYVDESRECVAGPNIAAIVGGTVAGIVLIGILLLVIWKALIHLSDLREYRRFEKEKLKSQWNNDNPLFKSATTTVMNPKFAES
Assay: Adherence of COS cells expressing ICAM-1 or ICAM-1 mutants to plastic-bound purified LFA-1
Assay type: cell-based
Settings: COS cells expressing ICAM-1 mutant adhering to LFA-1 coated plastic; normalized for percent of cells expressing mutant and for wild type binding; mean

| Molecule | LFA-1 Binding % |
| --- | --- |
| B1 | 79% |
| B2 | 1% |
| B3 | 18% |
| B4 | 104% |
| B5 | 103% |
| B6 | 3% |
| B7 | 49% |

Test system: RR1/1 mAb
Assay: Indirect immunofluorescence flow cytofluorometry: mAb RR1/1 binding to COS cells expressing ICAM-1 mutants (SLFI, % CL203)
Assay type: cell-based
Settings: SLFI normalized to CL203 SLFI of the mutant
Procedure: (§1) For HRV binding studies, COS cells were reseeded in a 24 well plate. One day later, the confluent monolayer was washed twice with 1 ml of RPMI 1640/10 mM MgCl2/25 mM Hepes pH 7.3 (rhinovirus-14 buffer). Transfected COS cells were labeled with 51Cr for binding to LFA-1 coated plastic as previously described (Staunton, D. E., et al., Nature 339:61-64 (1989). Immunoprecipitation and indirect immunofluorescence was performed using ICAM-1 MAb RR1/1 (Rothlein, R., et al., J. Immunol. 137:1270-1274 (1986)), R6.5 (Rothlein, R., et al., J. Immunol. 141:1665-1669 (1988)), LB-1 (Clark, E. A., et al., Hum. Immunol. 16:100-113 (1986)) and CL203 (Maio, M., J. Immunol. 143:181-188 (1989), all of which references are incorporated herein by reference).
(§2) Binding of RR1, R6.5, and LB-2 mAb was normalized to binding of CL203 mAb using Specific Linear Fluorescence Intensity (SLFI): % CL203=(mAbSLFI)×100)/CL203mABSLFI
(§3) In Table 25, the notation for the mutations uses the one-letter code for the wild-type sequence followed by a slash and the one-letter code for the corresponding mutant sequence. The position of the first amino acid within the sequence is indicated. Wild type residues precede the slash followed by the residues they were substituted for in the mutant. COS cells expressing ICAM-1 mutants were tested for adherence to LFA-1 coated plastic and for binding 35S met-labeled HRV14. LFA-1 and HRV14 binding is normalized for percent of cells expressing mutant ICAM-1 and for binding of wild type expressing cells. Binding is presented as mean and standard error (SE) for multiple experiments (n). Effects of two-fold or greater were reproducible in LFA-1, HRV and mAb binding assays and thus considered significant (bold and underlined). The specific linear fluorescence intensity (SLFI) of CL203 for each mutant is normalized to that of wild type CL203 SLFI (% WT) as discussed above. The SLFI of RR1/1, R6.5 and LB-2 SLFI is normalized to the CL203 SLFI of the mutant (% CL203) as described above.

| Molecule | SLFI (% CL203) RR/1 |
| --- | --- |
| B1 | 44 % CL203 |
| B2 | 0 % CL203 |
| B3 | 5 % CL203 |
| B4 | 59 % CL203 |
| B5 | 81 % CL203 |
| B6 | 10 % CL203 |
| B7 | 140 % CL203 |

Test system: CL203 mAb
Assay: Indirect immunofluorescence flow cytofluorometry: mAb CL203 binding to COS cells expressing ICAM-1 mutants (SLFI, % WT)
Assay type: cell-based
Settings: SLFI of CL203 for mutant normalized to wild type CL203 SLFI; level of expression
Procedure: as §1, §2, §3

| Molecule | Cl203 % WT (SLFI) |
| --- | --- |
| B1 | 109 % WT |
| B2 | 161 % WT |
| B3 | 121 % WT |
| B4 | 200 % WT |
| B5 | 122 % WT |
| B6 | 98 % WT |
| B7 | 151 % WT |

Test system: LB-2 mAb
Assay: Indirect immunofluorescence flow cytofluorometry: mAb LB-2 binding to COS cells expressing ICAM-1 mutants (SLFI, % CL203)
Assay type: cell-based
Settings: SLFI normalized to CL203 SLFI of the mutant
Procedure: as §1, §2, §3

| Molecule | SLFI (% CL203) LB-2 |
| --- | --- |
| B1 | 83 % CL203 |
| B2 | 26 % CL203 |
| B3 | 9 % CL203 |
| B4 | 73 % CL203 |
| B5 | 89 % CL203 |
| B6 | 7 % CL203 |
| B7 | 113 % CL203 |

Test system: R6.5 mAb
Assay: Indirect immunofluorescence flow cytofluorometry: mAb R6.5 binding to COS cells expressing ICAM-1 mutants (SLFI, % CL203)
Assay type: cell-based
Settings: SLFI normalized to CL203 SLFI of the mutant
Procedure: as §1, §2, §3

| Molecule | SLFI (% CL203) R6.5 |
| --- | --- |
| B1 | 94 % CL203 |
| B2 | 48 % CL203 |
| B3 | 31 % CL203 |
| B4 | 81 % CL203 |
| B5 | 0 % CL203 |
| B6 | 22 % CL203 |
| B7 | 107 % CL203 |
